Experimental data: PMC5030135 (Nature chemical biology, 2016)

Target: GDI.Cdc42 FLARE biosensor, wild type (Cdc42 with an N-terminal FRET binding antenna) (UniProt P60953 1-191)
Assay: FRET or BRET

Chain of GDI.Cdc42 FLARE biosensor, wild type (Cdc42 with an N-terminal FRET binding antenna) (P60953 whole entry): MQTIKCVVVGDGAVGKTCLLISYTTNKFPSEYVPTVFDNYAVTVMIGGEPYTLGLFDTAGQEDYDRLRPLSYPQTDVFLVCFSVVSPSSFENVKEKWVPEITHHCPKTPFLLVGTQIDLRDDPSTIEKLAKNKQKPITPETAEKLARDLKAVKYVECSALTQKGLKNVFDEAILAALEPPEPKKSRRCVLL

- increase in FRET/CFP emission ratio: 218%
B1: RhoGDI1 (RhoGDIα), wild type, unlabeled, co-expressed in excess (natural protein)
chain: MAEQEPTAEQLAQIAAENEEDEHSVNYKPPAQKSIQEIQELDKDDESLRKYKEALLGRVAVSADPNVPNVVVTGLTLVCSSAPGPLELDLTGDLESFKKQSFVLKEGVEYRIKISFRVNREIVSGMKYIQHTYRKGVKIDKTDYMVGSYGPRAEEYEFLTPVEEAPKGMLARGSYSIKSRFTDDDKTDHLSWEWNLTIKKDWKD
